Laboratory results reported in patent US20050043232A1.
Where a chain is given by its changes, count along the chain named.

T1: myostatin pro peptide (wild type)
T1 sequence: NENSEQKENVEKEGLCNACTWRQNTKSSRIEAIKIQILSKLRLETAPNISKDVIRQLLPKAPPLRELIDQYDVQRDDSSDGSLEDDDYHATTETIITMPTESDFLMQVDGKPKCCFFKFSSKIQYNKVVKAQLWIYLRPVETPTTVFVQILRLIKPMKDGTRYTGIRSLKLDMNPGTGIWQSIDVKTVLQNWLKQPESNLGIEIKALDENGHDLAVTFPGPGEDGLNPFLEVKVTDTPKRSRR

T2: myostatin pro peptide (wild type) (Homo sapiens (Human)) (UniProt O14793)
T2 sequence: T1 sequence

T3: 40-mer R to Q mutant peptide (SEQ ID NO:13)
T3 sequence: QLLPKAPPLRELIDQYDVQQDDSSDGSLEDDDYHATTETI

T4: 30-mer wild type myostatin pro peptide peptide (SEQ ID NO:15)
T4 sequence: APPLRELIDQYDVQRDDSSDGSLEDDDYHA

T5: 20-mer R to Q mutant peptide (SEQ ID NO:19)
T5 sequence: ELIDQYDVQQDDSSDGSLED

T6: 40-mer D to A mutant peptide (SEQ ID NO:14)
T6 sequence: T3 sequence with Q20R, D21A

T7: 30-mer R to Q mutant peptide (SEQ ID NO:16)
T7 sequence: T4 sequence with R15Q

T8: 20-mer wild type myostatin pro peptide peptide (SEQ ID NO:18)
T8 sequence: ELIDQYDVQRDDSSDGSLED

T9: 20-mer D to A mutant peptide (SEQ ID NO:20)
T9 sequence: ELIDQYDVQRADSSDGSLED

T10: 30-mer D to A mutant peptide (SEQ ID NO:17)
T10 sequence: T4 sequence with D16A

T11: 40-mer wild type myostatin pro peptide peptide (SEQ ID NO:12)
T11 sequence: T3 sequence with Q20R

B1: mammalian Tolloid-like-1 (mTLL-1) (enzyme, UniProt Q62381 148-1013, looked up, species assumed)
Tolloid-like protein 1: AATSRTERIWPGGVIPYVIGGNFTGSQRAMFKQAMRHWEKHTCVTFTERSDEESYIVFTYRPCGCCSYVGRRGNGPQAISIGKNCDKFGIVVHELGHVIGFWHEHTRPDRDNHVTIIRENIQPGQEYNFLKMEPGEVNSLGERYDFDSIMHYARNTFSRGMFLDTILPSRDDNGIRPAIGQRTRLSKGDIAQARKLYRCPACGETLQESSGNLSSPGFPNGYPSYTHCIWRVSVTPGEKIVLNFTTMDLYKSSLCWYDYIEVRDGYWRKSPLLGRFCGDKVAGVLTSTDSRMWIEFRSSSNWVGKGFAAVYEAICGGEIRKNEGQIQSPNYPDDYRPMKECVWKIMVSEGYHVGLTFQAFEIERHDSCAYDHLEVRDGASENSPLIGRFCGYDKPEDIRSTSNTLWMKFVSDGTVNKAGFAANFFKEEDECAKPDRGGCEQRCLNTLGSYQCACEPGYELGPDRRSCEAACGGLLTKLNGTITTPGWPKEYPPNKNCVWQVIAPSQYRISVKFEFFELEGNEVCKYDYVEIWSGPSSESKLHGKFCGADIPEVMTSHFNNMRIEFKSDNTVSKKGFKAHFFSDKDECSKDNGGCQHECVNTMGSYTCQCRNGFVLHENKHDCKEAECEQKIHSPSGLITSPNWPDKYPSRKECTWVISAIPGHRITLAFNEFEVEQHQECAYDHLEIFDGETEKSPILGRLCGSKIPDPLMATGNEMFIRFISDASVQRKGFQATHSTECGGRLKAESKPRDLYSHAQFGDNNYPGQLDCEWLLVSERGSRLELSFQTFEVEEEADCGYDYVEVFDGLSSKAVGLGRFCGSGPPEEIYSIGDVALIHFHTDDTINKKGFYIRYKSIRYPETMHAKN
B2: mammalian Tolloid-like-2 (mTLL-2) (enzyme, UniProt Q9WVM6 147-1012, looked up, species assumed)
Tolloid-like protein 2: ATTSRTERIWPGGVIPYVIGGNFTGTQRAIFKQAMRHWEKHTCVTFVERTDEESFIVFSYRTCGCCSYVGRRGGGPQAISIGKNCDKFGIVAHELGHVVGFWHEHTRPDRDQHVTIIRENIQPGQEYNFLKMEAGEVSSLGETYDFDSIMHYARNTFSRGVFLDTILPRRDDNGVRPTIGQRVRLSQGDIAQARKLYKCPACGETLQDTTGNFSAPGFPNGYPSYSHCVWRISVTPGEKIILNFTSMDLFKSRLCWYDYVEIRDGYWRKAPLLGRFCGDKIPESLVSSDSRLWVEFRSSSSSLGKGFFAVYEAMCGGDITKDAGQIQSPNYPDDYRPSKECVWRITVPDGFHVGLTFQSFEIERHDSCAYDYLEIRDGPTEDSTLIGHFCGYEKPEAVKSSANRLWVKFVSDGSINKAGFAANFFKEVDECSWPDHGGCEQRCVNTLGSYTCACDPGYELAADKKTCEVACGGFITKLNGTITSPGWPKEYPTNKNCVWQVVAPVQYRISLQFEAFELEGNDVCKYDFVEVRSGLSPDAKLHGKFCGSETPEVITSQSNNMRVEFKSDNTVSKRGFRAHFFSDKDECAKDNGGCQQECVNTFGSYLCRCRNGYRLHENGHDCKEAGCAYKISSAEGTLMSPNWPDKYPSRKECTWNISSTAGHRVKITFSEFEIEQHQECAYDHLELYDGTDSLAPILGRFCGSKKPDPVVATGSSLFLRFYSDASVQRKGFQAVHSTECGGRLKAEVQTKELYSHAQFGDNNYPSQARCDWVIVAEDGYGVELIFRTFEVEEEADCGYDFMEAYDGYDSSAPRLGRFCGSGPLEEIYSAGDSLMIRFHTDDTINKKGFHARYTSTKFQDALHMRK
B3: bone morphogenic protein-1 (BMP-1) (enzyme, UniProt P13497 121-986, looked up, species assumed)
Bone morphogenetic protein 1: AATSRPERVWPDGVIPFVIGGNFTGSQRAVFRQAMRHWEKHTCVTFLERTDEDSYIVFTYRPCGCCSYVGRRGGGPQAISIGKNCDKFGIVVHELGHVVGFWHEHTRPDRDRHVSIVRENIQPGQEYNFLKMEPQEVESLGETYDFDSIMHYARNTFSRGIFLDTIVPKYEVNGVKPPIGQRTRLSKGDIAQARKLYKCPACGETLQDSTGNFSSPEYPNGYSAHMHCVWRISVTPGEKIILNFTSLDLYRSRLCWYDYVEVRDGFWRKAPLRGRFCGSKLPEPIVSTDSRLWVEFRSSSNWVGKGFFAVYEAICGGDVKKDYGHIQSPNYPDDYRPSKVCIWRIQVSEGFHVGLTFQSFEIERHDSCAYDYLEVRDGHSESSTLIGRYCGYEKPDDIKSTSSRLWLKFVSDGSINKAGFAVNFFKEVDECSRPNRGGCEQRCLNTLGSYKCSCDPGYELAPDKRRCEAACGGFLTKLNGSITSPGWPKEYPPNKNCIWQLVAPTQYRISLQFDFFETEGNDVCKYDFVEVRSGLTADSKLHGKFCGSEKPEVITSQYNNMRVEFKSDNTVSKKGFKAHFFSDKDECSKDNGGCQQDCVNTFGSYECQCRSGFVLHDNKHDCKEAGCDHKVTSTSGTITSPNWPDKYPSKKECTWAISSTPGHRVKLTFMEMDIESQPECAYDHLEVFDGRDAKAPVLGRFCGSKKPEPVLATGSRMFLRFYSDNSVQRKGFQASHATECGGQVRADVKTKDLYSHAQFGDNNYPGGVDCEWVIVAEEGYGVELVFQTFEVEEETDCGYDYMELFDGYDSTAPRLGRYCGSGPPEEVYSAGDSVLVKFHSDDTITKKGFHLRYTSTKFQDTLHSRK

Key:
[1] = test system: T1, myostatin pro peptide (wild type)
[2] = molecular target: T2, myostatin pro peptide (wild type) (Homo sapiens (Human)); experiment: cell-based or functional assay
[3] = test system: T3, 40-mer R to Q mutant peptide (SEQ ID NO:13)
[4] = test system: T4, 30-mer wild type myostatin pro peptide peptide (SEQ ID NO:15)
[5] = test system: T5, 20-mer R to Q mutant peptide (SEQ ID NO:19)
[6] = test system: T6, 40-mer D to A mutant peptide (SEQ ID NO:14)
[7] = test system: T7, 30-mer R to Q mutant peptide (SEQ ID NO:16)
[8] = test system: T8, 20-mer wild type myostatin pro peptide peptide (SEQ ID NO:18)
[9] = test system: T9, 20-mer D to A mutant peptide (SEQ ID NO:20)
[10] = test system: T10, 30-mer D to A mutant peptide (SEQ ID NO:17)
[11] = test system: T11, 40-mer wild type myostatin pro peptide peptide (SEQ ID NO:12)

Molecule	partial proteolytic cleavage of pro peptide in the latent complex, western blot (FIG. 3E; 1 µg complex, 250 ng proteinase, 16 hours 37° C.) [1]	proteolytic cleavage of free pro peptide (purified away from the C-terminal dimer) [1]	proteolytic cleavage of pro peptide, SDS-PAGE and western blot (500 ng substrate, 100 ng protease, overnight 37° C.; free pro peptide and latent complex) [1]	fraction of proteolytically-cleaved myostatin complex active in the luciferase reporter assay (against a standard curve of C-terminal dimer) [2] [%]	cleavage of synthetic peptide by conditioned medium containing TLL-2, C18 HPLC and mass spectrometry [3]	cleavage of synthetic peptide by conditioned medium containing TLL-2, C18 HPLC and mass spectrometry [4]	cleavage of synthetic peptide by conditioned medium containing TLL-2, C18 HPLC and mass spectrometry [5]	cleavage of synthetic peptide by conditioned medium containing TLL-2, C18 HPLC and mass spectrometry [6]	cleavage of synthetic peptide by conditioned medium containing TLL-2, C18 HPLC and mass spectrometry [7]	cleavage of synthetic peptide by conditioned medium containing TLL-2, C18 HPLC and mass spectrometry [8]	cleavage of synthetic peptide by conditioned medium containing TLL-2, C18 HPLC and mass spectrometry [9]	cleavage of synthetic peptide by conditioned medium containing TLL-2, C18 HPLC and mass spectrometry [10]	cleavage of synthetic peptide by conditioned medium containing TLL-2, C18 HPLC and mass spectrometry [11]	proteolytic cleavage of pro peptide in the purified latent complex, SDS-PAGE and western blot (FIG. 3D) [1]
mammalian Tolloid (mTLD)	mTLD was consistently less active than the other three	All four of these proteinases also cleaved pro peptide that had been purified away from the C-terminal dimer	each of the proteases cleaved the pro peptide whether it was in a purified form or in a complex with the myostatin C-terminal dimer	–	–	–	–	–	–	–	–	–	–	–
B1	Three of the proteinases, BMP-1, mTLL-1, and mTLL-2, were approximately equally effective in cleaving the pro peptide	All four of these proteinases also cleaved pro peptide that had been purified away from the C-terminal dimer	each of the proteases cleaved the pro peptide whether it was in a purified form or in a complex with the myostatin C-terminal dimer	> 50	–	–	–	–	–	–	–	–	–	–
B2	Three of the proteinases, BMP-1, mTLL-1, and mTLL-2, were approximately equally effective in cleaving the pro peptide	All four of these proteinases also cleaved pro peptide that had been purified away from the C-terminal dimer	each of the proteases cleaved the pro peptide whether it was in a purified form or in a complex with the myostatin C-terminal dimer	–	The 40-mer, 30-mer, and 20-mer wild type and R→Q mutant peptides were cleaved by conditioned media containing TLL-2	The 40-mer, 30-mer, and 20-mer wild type and R→Q mutant peptides were cleaved by conditioned media containing TLL-2	The 40-mer, 30-mer, and 20-mer wild type and R→Q mutant peptides were cleaved by conditioned media containing TLL-2	the peptides containing the D→A mutation at the P1′ position were not cleaved	The 40-mer, 30-mer, and 20-mer wild type and R→Q mutant peptides were cleaved by conditioned media containing TLL-2	The 40-mer, 30-mer, and 20-mer wild type and R→Q mutant peptides were cleaved by conditioned media containing TLL-2	the peptides containing the D→A mutation at the P1′ position were not cleaved	the peptides containing the D→A mutation at the P1′ position were not cleaved	The 40-mer, 30-mer, and 20-mer wild type and R→Q mutant peptides were cleaved by conditioned media containing TLL-2	–
B3	Three of the proteinases, BMP-1, mTLL-1, and mTLL-2, were approximately equally effective in cleaving the pro peptide	All four of these proteinases also cleaved pro peptide that had been purified away from the C-terminal dimer	each of the proteases cleaved the pro peptide whether it was in a purified form or in a complex with the myostatin C-terminal dimer	–	–	–	–	–	–	–	–	–	–	incubation of the purified latent complex with purified BMP-1 resulted in complete cleavage of the pro peptide to generate a single product
